Measurements taken from the RNAGym collection of RNA variant scans (doi:10.7554/elife.80360).

B1: HDV Ribozyme (parent)
chain: GGCCGGCAUGGUCCCAGCCUCCUCGCUGGCGCCGGCUGGGCAACAUUCCGAGGGGACCGUCCCCUCGGUAAUGGCGAAUGGGACCCA

Variants of: B1
Assay: self-cleavage, relative activity (ratio to wild type); higher = more cleavage; co-transcriptional

Row | Variant | self-cleavage
1 | GGCCGGCAUGGUCCCAGCCUCCUCGCUGGCGCCGGCUGGGCAACAUUCCGAGGGGACCGUCCCAUCGGUAAUCGCGAAUGGGACCCA [C64A G73C] | 0.256
2 | GGCCGGCAUGGUCCCAGCCUCCUCGCUGGCGCCGGCUGGGCAACAUUCCGAGGGGACCGUCCCAUCGGUAAUGACGAAUGGGACCCA [C64A G74A] | 0.295
3 | GGCCGGCAUGGUCCCAGCCUCCUCGCUGGCGCCGGCUGGGCAACAUUCCGAGGGGACCGUCCCAUCGGUAAUGUCGAAUGGGACCCA [C64A G74U] | 0.327
4 | GGCCGGCAUGGUCCCAGCCUCCUCGCUGGCGCCGGCUGGGCAACAUUCCGAGGGGACCGUCCCAUCGGUAAUGCCGAAUGGGACCCA [C64A G74C] | 0.242
5 | GGCCGGCAUGGUCCCAGCCUCCUCGCUGGCGCCGGCUGGGCAACAUUCCGAGGGGACCGUCCCAUCGGUAAUGGCGAAUGGGACUCA [C64A C85U] | 0.72
6 | GGCCGGCAUGGUCCCAGCCUCCUCGCUGGCGCCGGCUGGGCAACAUUCCGAGGGGACCGUCCCAUCGGUAAUGGCGAAUAGGACCCA [C64A G80A] | 0.611
7 | GGCCGGCAUGGUCCCAGCCUCCUCGCUGGCGCCGGCUGGGCAACAUUCCGAGGGGACCGUCCCAUCGGUAAGGGCGAAUGGGACCCA [C64A U72G] | 0.856
8 | GGCCGGCAUGGUCCCAGCCUCCUCGCUGGCGCCGGCUGGGCAACAUUCCGAGGGGACCGUCCCAUCGGUAAAGGCGAAUGGGACCCA [C64A U72A] | 0.491
9 | GGCCGGCAUGGUCCCAGCCUCCUCGCUGGCGCCGGCUGGGCAACAUUCCGAGGGGACCGUCCCAUCGGUAACGGCGAAUGGGACCCA [C64A U72C] | 0.465
10 | GGCCGGCAUGGUCCCAGCCUCCUCGCUGGCGCCGGCUGGGCAACAUUCCGAGGGGACCGUCCCAUCGCUAAUGGCGAAUGGGACCCA [C64A G68C] | 0.554
11 | GGCCGGCAUGGUCCCAGCCUCCUCGCUGGCGCCGGCUGGGCAACAUUCCGAGGGGACCGUCCCAUCGUUAAUGGCGAAUGGGACCCA [C64A G68U] | 0.272
12 | GGCCGGCAUGGUCCCAGCCUCCUCGCUGGCGCCGGCUGGGCAACAUUCCGAGGGGACCGUCCCGUCGGUAAUGGCGAUUGGGACCCA [C64G A78U] | 0.18
13 | GGCCGGCAUGGUCCCAGCCUCCUCGCUGGCGCCGGCUGGGCAACAUUCCGAGGGGACCGUCCCAUCGGUAAUGGCGAAUGGUACCCA [C64A G82U] | 0.409
14 | GGCCGGCAUGGUCCCAGCCUCCUCGCUGGCGCCGGCUGGGCAACAUUCCGAGGGGACCGUCCCAUCGGUAAUGGCGAAUGGAACCCA [C64A G82A] | 0.282
15 | GGCCGGCAUGGUCCCAGCCUCCUCGCUGGCGCCGGCUGGGCAACAUUCCGAGGGGACCGUCCCAUCGGUAAUGGCGAACGGGACCCA [C64A U79C] | 0.636
16 | GGCCGGCAUGGUCCCAGCCUCCUCGCUGGCGCCGGCUGGGCAACAUUCCGAGGGGACCGUCCCGUCGGUAAUGGCGUAUGGGACCCA [C64G A77U] | 0.506

Row | Variant | self-cleavage
17 | GGCCGGCAUGGUCCCAGCCUCCUCGCUGGCGCCGGCUGGGCAACAUUCCGAGGGGACCGUCCCGUCGGUAAUGGCGGAUGGGACCCA [C64G A77G] | 0.434
18 | GGCCGGCAUGGUCCCAGCCUCCUCGCUGGCGCCGGCUGGGCAACAUUCCGAGGGGACCGUCCCAUCAGUAAUGGCGAAUGGGACCCA [C64A G67A] | 0.369
19 | GGCCGGCAUGGUCCCAGCCUCCUCGCUGGCGCCGGCUGGGCAACAUUCCGAGGGGACCGUCCCAUCCGUAAUGGCGAAUGGGACCCA [C64A G67C] | 0.277
20 | GGCCGGCAUGGUCCCAGCCUCCUCGCUGGCGCCGGCUGGGCAACAUUCCGAGGGGACCGUCCCAUCGGUAAUGGCGAAUGGGAACCA [C64A C84A] | 1.15
21 | GGCCGGCAUGGUCCCAGCCUCCUCGCUGGCGCCGGCUGGGCAACAUUCCGAGGGGACCGUCCCAUCGGUAAUGGCGAAUGGGAGCCA [C64A C84G] | 0.536
22 | GGCCGGCAUGGUCCCAGCCUCCUCGCUGGCGCCGGCUGGGCAACAUUCCGAGGGGACCGUCCCAGCGGUAAUGGCGAAUGGGACCCA [C64A U65G] | 0.937
23 | GGCCGGCAUGGUCCCAGCCUCCUCGCUGGCGCCGGCUGGGCAACAUUCCGAGGGGACCGUCCCAACGGUAAUGGCGAAUGGGACCCA [C64A U65A] | 0.895
24 | GGCCGGCAUGGUCCCAGCCUCCUCGCUGGCGCCGGCUGGGCAACAUUCCGAGGGGACCGUCCCGUCGGUGAUGGCGAAUGGGACCCA [C64G A70G] | 0.712
25 | GGCCGGCAUGGUCCCAGCCUCCUCGCUGGCGCCGGCUGGGCAACAUUCCGAGGGGACCGUCCCGUCGGUCAUGGCGAAUGGGACCCA [C64G A70C] | 0.536
26 | GGCCGGCAUGGUCCCAGCCUCCUCGCUGGCGCCGGCUGGGCAACAUUCCGAGGGGACCGUCCCAUCGGUAAUGGCGAAUGUGACCCA [C64A G81U] | 0.379
27 | GGCCGGCAUGGUCCCAGCCUCCUCGCUGGCGCCGGCUGGGCAACAUUCCGAGGGGACCGUCCCAUCGGUAAUGGCGAAUGCGACCCA [C64A G81C] | 0.203
28 | GGCCGGCAUGGUCCCAGCCUCCUCGCUGGCGCCGGCUGGGCAACAUUCCGAGGGGACCGUCCCAUCGGUAAUGGCGAAUGGGACCCC [C64A A87C] | 0.779
29 | GGCCGGCAUGGUCCCAGCCUCCUCGCUGGCGCCGGCUGGGCAACAUUCCGAGGGGACCGUCCCGUCGGUAGUGGCGAAUGGGACCCA [C64G A71G] | 1.11
30 | GGCCGGCAUGGUCCCAGCCUCCUCGCUGGCGCCGGCUGGGCAACAUUCCGAGGGGACCGUCCCGUCGGUAAUGGCGAAUGGGACCCA [C64G] | 0.954
31 | GGCCGGCAUGGUCCCAGCCUCCUCGCUGGCGCCGGCUGGGCAACAUUCCGAGGGGACCGUCCCAUCGGCAAUGGCGAAUGGGACCCA [C64A U69C] | 0.782
32 | GGCCGGCAUGGUCCCAGCCUCCUCGCUGGCGCCGGCUGGGCAACAUUCCGAGGGGACCGUCCCGUCGGUAAUGGCGAAUGGGGCCCA [C64G A83G] | 0.708
